Data on eleven molecules can be found in patent US9096650B2, “Cyclic oligopeptides for binding to a target ligand” (LEXCICON LIMITED, priority 2006, dated 2015).

Bridges are numbered along the chain shown (N, C = ends). [ ]: non-standard residue; d: D form. Gly(decyl) = CCCCCCCCCC[C@H](N)C(=O)O

Assay [1] concerns J774-1 cells (a macrophage cell line). Briefly: Suppression of TNF secretion stimulated by LPS in a macrophage cell line, varying epitope order and stereochemistry of associating amino acids (Example 3). It is filed as cell-based. Particulars: peptide 50 ug/ml; LPS 1.25 ug/ml; LPS alone 1861.9. The protocol: • 1. Cyclic octapeptides were prepared with the following structures: cyclo(-DF-S-ΣL-R-DF-S-ΣL-R-) cyclo(-DF-S-ΣL-R-DF-S-ΣD-R-) cyclo(-DF-S-ΣD-R-DF-S-ΣD-R-) cyclo(-DF-R-ΣL-S-DF-R-ΣL-S-) cyclo(-DF-R-ΣL-S-DF-R-ΣD-S-) cyclo(-DF-R-ΣD-S-DF-R-ΣD-S-) wherein F, S and R are the epitope-forming amino acids, ΣL represents an associating amino acid which is an L-alpha aminocarboxylic acid in which the associating functional group is a side-chain residue consisting of an unbranched —C10H21; ΣD represents an associating amino acid which is a D-alpha aminocarboxylic acid in which the associating functional group is a side-chain residue consisting an unbranched —C10H21. These cyclic oligopeptides were prepared as solutions in distilled water at a concentration of 1 mg/ml. • 2. J774-1 cells (a macrophage cell line) were plated out in all the wells of a 24-well cluster plates at a seeding density of 3×10^5 cells/ml/well (1 ml RPMI 1640 culture medium per well), and incubated overnight at 37° C. in 5% CO2/air. • 3. The following day, the solutions from step 1 were administered to eighteen wells containing cells in step 2, to give three wells each with a final concentration of 50 ug/ml. The remaining wells were left untreated. The plate was incubated for a further four hours at 37 degC. • 4. Lipopolysaccharide (from E. coli strain 0111 B4) was added to the wells receiving the octapeptide solutions, as well as three of the wells receiving no peptide. The concentration of lipopolysaccharide was 1.25 ug/ml. • 5. The plate was incubated overnight, and the following day the supernatants were assayed for TNF using a commercial ELISA kit.

Assay [2] deals with thrombin (Homo sapiens, UniProt P00734). Briefly: Inhibition of enzyme activity of thrombin, fluorogenic substrate (Example 7). It is filed as biochemical. The protocol:
1. Cyclic oligopeptides of the following structures were synthesised as previously described, and prepared in complexed form with cyclodextrin at concentration of 1 mg/ml on Hanks Balanced Salts Solution using the procedure outlined in example 6. (i) cyclo(-R-E-Σ-S-R-E-R-Σ-S-E-) (ii) cyclo(-A-K-ΣE-Y-K-A-ΣY-E-) (iii) cyclo(-dF-R-C-S-dF-R-C-S-) (iv) cyclo(-dF-S-C-R-dF-S-C-R-)
2. In wells of a […] microplate, 20 ul of thrombin solution (0.01 mg/ml) were dispensed, and mixed with 60 ul of cyclic oligopeptide solution
3. 20 ul of the substrate boc-beta-benzyl-Asp-Pro-Arg-7-amido-4-methylcoumarin hydrochloride (0.01 mg/ml) was added to each well, and the time course of generation of […] was measured.

Assay [3] deals with thrombin. Briefly: cell-based or functional assay.
[4] abbreviates: time 2.0 minutes, enzyme alone 770.9, lower = more inhibition.
[5] abbreviates: time 5.0 minutes, enzyme alone 1821.1.
Where [6] appears, read: time 10.0 minutes, enzyme alone 2163.5.
[7] abbreviates: time 15.0 minutes, enzyme alone 2253.2.
The mark [8] stands for this setting: time 20.0 minutes, enzyme alone 2345.8.
The mark [9] stands for this setting: time 25.0 minutes, enzyme alone 2359.0.

Regarding cyclo(-DF-R-ΣD-S-DF-R-ΣD-S-), the “Concentration of TNF” value in assay [1] is 1573.3 pg/mL.

As for cyclo(-DF-R-ΣL-S-DF-R-ΣD-S-), the “Concentration of TNF” value in assay [1] amounted to 1625.2 pg/mL.

Regarding cyclo(-DF-R-ΣL-S-DF-R-ΣL-S-), the “Concentration of TNF” value in assay [1] worked out at 1990.4 pg/mL.

Turning to cyclo(-DF-S-ΣD-R-DF-S-ΣD-R-), in assay [1], the “Concentration of TNF” value is 1438.0 pg/mL.

For cyclo(-DF-S-ΣL-R-DF-S-ΣD-R-), the “Concentration of TNF” value in assay [1] worked out at 987.1 pg/mL.

Turning to “cyclo(-dF-R-C-S-dF-R-C-S-) (cyclo([dF]RCS[dF]RCS); disulfide 3-7; SMILES N=C(N)NCCC[C@@H]1NC(=O)[C@@H](Cc2ccccc2)NC(=O)[C@H](CO)NC(=O)[C@@H]2CSSC[C@H](NC1=O)C(=O)N[C@@H](CO)C(=O)N[C@H](Cc1ccccc1)C(=O)N[C@@H](CCCNC(=N)N)C(=O)N2) [Example 7 (iii), cysteines in the ring are oxidised to form an internal bridge]”, the “Thrombin proteolytic activity (Fluorescence Units - Arbitrary Units)” value in assay [2] (setting [4]) turned out to be 634.5 Arbitrary Units; in assay [2] (setting [5]), 1368.8 Arbitrary Units; in assay [2] (setting [6]), 1786.9 Arbitrary Units; in assay [2] (setting [7]), 1980.7 Arbitrary Units; in assay [2] (setting [8]), 2107.4 Arbitrary Units; in assay [2] (setting [9]), 2159.7 Arbitrary Units.

On to “cyclo(-dF-S-C-R-dF-S-C-R-) (cyclo([dF]SCR[dF]SCR); disulfide 3-7; SMILES N=C(N)NCCC[C@@H]1NC(=O)[C@@H]2CSSC[C@H](NC(=O)[C@H](CO)NC(=O)[C@@H](Cc3ccccc3)NC1=O)C(=O)N[C@@H](CCCNC(=N)N)C(=O)N[C@H](Cc1ccccc1)C(=O)N[C@@H](CO)C(=O)N2) [Example 7 (iv), cysteines in the ring are oxidised to form an internal bridge]”, for which the “Thrombin proteolytic activity (Fluorescence Units - Arbitrary Units)” value in assay [2] (setting [4]) came out at 523.2 Arbitrary Units; in assay [2] (setting [5]), 1205.3 Arbitrary Units; in assay [2] (setting [6]) it was 1586.9 Arbitrary Units; in assay [2] (setting [7]), 1751.7 Arbitrary Units; in assay [2] (setting [8]) it was 1843.1 Arbitrary Units; in assay [2] (setting [9]), 1864.8 Arbitrary Units.

B1: cyclo(-dF-S-C-R-dF-S-C-R-) (peptide)
peptide: cyclo([dF]SCR[dF]SCR)
modifications: disulfide 3-7
SMILES: N=C(N)NCCC[C@@H]1NC(=O)[C@@H]2CSSC[C@H](NC(=O)[C@H](CO)NC(=O)[C@@H](Cc3ccccc3)NC1=O)C(=O)N[C@@H](CCCNC(=N)N)C(=O)N[C@H](Cc1ccccc1)C(=O)N[C@@H](CO)C(=O)N2
Regarding B1, in assay [3], the Inhibition of Thrombin proteolytic activity (Fluorescence Units - Arbitrary Units) at 2.0 minutes; control (enzyme alone) 770.9 (Fluorescence Units - Arbitrary Units) was 523, the Inhibition of Thrombin proteolytic activity (Fluorescence Units - Arbitrary Units) at 5.0 minutes; control (enzyme alone) 1821.1 (Fluorescence Units - Arbitrary Units) is 1210, the Inhibition of Thrombin proteolytic activity (Fluorescence Units - Arbitrary Units) at 10.0 minutes; control (enzyme alone) 2163.5 (Fluorescence Units - Arbitrary Units) turned out to be 1590 and the Inhibition of Thrombin proteolytic activity (Fluorescence Units - Arbitrary Units) at 15.0 minutes; control (enzyme alone) 2253.2 (Fluorescence Units - Arbitrary Units) came to 1750. In assay [3], the Inhibition of Thrombin proteolytic activity (Fluorescence Units - Arbitrary Units) at 20.0 minutes; control (enzyme alone) 2345.8 (Fluorescence Units - Arbitrary Units) was found to be 1840 and the Inhibition of Thrombin proteolytic activity (Fluorescence Units - Arbitrary Units) at 25.0 minutes; control (enzyme alone) 2359.0 (Fluorescence Units - Arbitrary Units) was 1860.

B2: cyclo(-R-E-Σ-S-R-E-R-Σ-S-E-) (peptide)
peptide: cyclo(RE[Gly(decyl)]SRER[Gly(decyl)]SE)
SMILES: CCCCCCCCCC[C@@H]1NC(=O)[C@H](CCCNC(=N)N)NC(=O)[C@H](CCC(=O)O)NC(=O)[C@H](CCCNC(=N)N)NC(=O)[C@H](CO)NC(=O)[C@H](CCCCCCCCCC)NC(=O)[C@H](CCC(=O)O)NC(=O)[C@H](CCCNC(=N)N)NC(=O)[C@H](CCC(=O)O)NC(=O)[C@H](CO)NC1=O
In assay [3], B2 showed an Inhibition of Thrombin proteolytic activity (Fluorescence Units - Arbitrary Units) at 2.0 minutes; control (enzyme alone) 770.9 (Fluorescence Units - Arbitrary Units) of 411, an Inhibition of Thrombin proteolytic activity (Fluorescence Units - Arbitrary Units) at 5.0 minutes; control (enzyme alone) 1821.1 (Fluorescence Units - Arbitrary Units) of 816, an Inhibition of Thrombin proteolytic activity (Fluorescence Units - Arbitrary Units) at 10.0 minutes; control (enzyme alone) 2163.5 (Fluorescence Units - Arbitrary Units) of 1190 and an Inhibition of Thrombin proteolytic activity (Fluorescence Units - Arbitrary Units) at 15.0 minutes; control (enzyme alone) 2253.2 (Fluorescence Units - Arbitrary Units) of 1400. Also, in assay [3], the Inhibition of Thrombin proteolytic activity (Fluorescence Units - Arbitrary Units) at 20.0 minutes; control (enzyme alone) 2345.8 (Fluorescence Units - Arbitrary Units) came out at 1590 and the Inhibition of Thrombin proteolytic activity (Fluorescence Units - Arbitrary Units) at 25.0 minutes; control (enzyme alone) 2359.0 (Fluorescence Units - Arbitrary Units) amounted to 1670.

B3: cyclo(-dF-R-C-S-dF-R-C-S-) (peptide)
peptide: cyclo([dF]RCS[dF]RCS)
modifications: disulfide 3-7
SMILES: N=C(N)NCCC[C@@H]1NC(=O)[C@@H](Cc2ccccc2)NC(=O)[C@H](CO)NC(=O)[C@@H]2CSSC[C@H](NC1=O)C(=O)N[C@@H](CO)C(=O)N[C@H](Cc1ccccc1)C(=O)N[C@@H](CCCNC(=N)N)C(=O)N2
In assay [3], B3 had an Inhibition of Thrombin proteolytic activity (Fluorescence Units - Arbitrary Units) at 2.0 minutes; control (enzyme alone) 770.9 (Fluorescence Units - Arbitrary Units) of 634, an Inhibition of Thrombin proteolytic activity (Fluorescence Units - Arbitrary Units) at 5.0 minutes; control (enzyme alone) 1821.1 (Fluorescence Units - Arbitrary Units) of 1370, an Inhibition of Thrombin proteolytic activity (Fluorescence Units - Arbitrary Units) at 10.0 minutes; control (enzyme alone) 2163.5 (Fluorescence Units - Arbitrary Units) of 1790 and an Inhibition of Thrombin proteolytic activity (Fluorescence Units - Arbitrary Units) at 15.0 minutes; control (enzyme alone) 2253.2 (Fluorescence Units - Arbitrary Units) of 1980. Moreover, in assay [3], the Inhibition of Thrombin proteolytic activity (Fluorescence Units - Arbitrary Units) at 20.0 minutes; control (enzyme alone) 2345.8 (Fluorescence Units - Arbitrary Units) turned out to be 2110 and the Inhibition of Thrombin proteolytic activity (Fluorescence Units - Arbitrary Units) at 25.0 minutes; control (enzyme alone) 2359.0 (Fluorescence Units - Arbitrary Units) is 2160.

B4: cyclo(-A-K-ΣE-Y-K-A-ΣY-E-) (peptide)
peptide: cyclo(AK[Gly(decyl)]EYKA[Gly(decyl)]YE)
SMILES: CCCCCCCCCC[C@@H]1NC(=O)[C@H](C)NC(=O)[C@H](CCCCN)NC(=O)[C@H](Cc2ccc(O)cc2)NC(=O)[C@H](CCC(=O)O)NC(=O)[C@H](CCCCCCCCCC)NC(=O)[C@H](CCCCN)NC(=O)[C@H](C)NC(=O)[C@H](CCC(=O)O)NC(=O)[C@H](Cc2ccc(O)cc2)NC1=O
In assay [3], B4 registered an Inhibition of Thrombin proteolytic activity (Fluorescence Units - Arbitrary Units) at 2.0 minutes; control (enzyme alone) 770.9 (Fluorescence Units - Arbitrary Units) of 411, an Inhibition of Thrombin proteolytic activity (Fluorescence Units - Arbitrary Units) at 5.0 minutes; control (enzyme alone) 1821.1 (Fluorescence Units - Arbitrary Units) of 816, an Inhibition of Thrombin proteolytic activity (Fluorescence Units - Arbitrary Units) at 10.0 minutes; control (enzyme alone) 2163.5 (Fluorescence Units - Arbitrary Units) of 1190 and an Inhibition of Thrombin proteolytic activity (Fluorescence Units - Arbitrary Units) at 15.0 minutes; control (enzyme alone) 2253.2 (Fluorescence Units - Arbitrary Units) of 1400. For the same molecule, in assay [3], the Inhibition of Thrombin proteolytic activity (Fluorescence Units - Arbitrary Units) at 20.0 minutes; control (enzyme alone) 2345.8 (Fluorescence Units - Arbitrary Units) worked out at 1590 and the Inhibition of Thrombin proteolytic activity (Fluorescence Units - Arbitrary Units) at 25.0 minutes; control (enzyme alone) 2359.0 (Fluorescence Units - Arbitrary Units) came out at 1670.
